According to patent US20080152587A1 (Amgen, published 2008):

T1: human Ly6e with a myc tag, expressed in HEK293T cells (human, UniProt Q16553 21-101)
T1 construct: whole, on cells; not shown: myc tag fused on the molecule
T1 sequence (looked up): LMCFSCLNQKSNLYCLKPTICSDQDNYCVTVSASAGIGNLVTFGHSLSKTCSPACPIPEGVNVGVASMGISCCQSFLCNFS

T2: mouse uPAR on the surface of NCTC L929 cells (mouse, UniProt P35456 24-298)
T2 construct: whole, on cells; also called cell surface mouse uPAR
T2 sequence (looked up): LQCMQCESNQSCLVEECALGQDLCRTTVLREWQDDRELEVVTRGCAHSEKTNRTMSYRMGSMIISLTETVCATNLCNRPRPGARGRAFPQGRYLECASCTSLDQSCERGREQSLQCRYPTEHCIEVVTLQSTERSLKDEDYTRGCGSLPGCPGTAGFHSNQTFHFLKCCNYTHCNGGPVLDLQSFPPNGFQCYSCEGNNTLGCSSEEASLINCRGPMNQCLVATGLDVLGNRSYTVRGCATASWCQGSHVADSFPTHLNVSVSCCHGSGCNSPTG

T3: murine uPAR (form not stated) (mouse, UniProt P35456 24-297, limits assumed)
T3 construct: also called mouse uPAR
T3 sequence (looked up): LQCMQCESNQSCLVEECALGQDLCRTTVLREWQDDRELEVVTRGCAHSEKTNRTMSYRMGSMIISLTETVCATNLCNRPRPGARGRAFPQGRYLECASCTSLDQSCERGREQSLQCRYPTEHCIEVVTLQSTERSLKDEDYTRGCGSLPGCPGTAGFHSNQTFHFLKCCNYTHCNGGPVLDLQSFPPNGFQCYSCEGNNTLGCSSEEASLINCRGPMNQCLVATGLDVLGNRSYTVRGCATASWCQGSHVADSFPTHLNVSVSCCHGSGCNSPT


Experiments:
[1] = target: T1, human Ly6e with a myc tag, expressed in …; assay: FACS, HEK293T cells expressing Ly6e, supernatant 1:2
Method: The reactivity of the antibodies to the HEK293T transfected to express Ly6e was determined by FACS analysis, using 1:2 hybridoma supernatants, and probed with goat anti-human γ chain conjugated with Cy5 (2.5 mg/ml, Jackson Immune Research). Binding of an anti-myc antibody (10 μg/ml, Invitrogen) to the transfectants served as a positive control, and binding of this antibody to the (Ly6e negative) parental cells served as the negative control.

[2] = target: T4, soluble recombinant human uPAR/His6 (R&D Systems, Cat. # 807-UK-100) (human, UniProt Q03405 23-303); assay: limited antigen ELISA, uPAR coat 20 ng/mL, sample 1:25
T4 construct: range 1-303; Bought protein; also called soluble uPAR; hu-uPAR
Method: (§1) ELISA plates were coated with a lower amount ofuPAR in comparison with the High Antigen Quantitation assay described below (320, 160, 80, 40 and 20 ng/mL). Samples containing one concentration of antibody (Ab) (1:25 dilution) were incubated overnight to allow Ab binding to approach equilibrium.

[3] = target: T2, mouse uPAR on the surface of NCTC L929 …; assay: FACS, NCTC L929 mouse cells
Method: (§2) To make the mouse cross-reactivity results conclusive, direct binding of the mAbs to cell-bound mouse uPAR was measured using FACS analysis. The mouse cell line derived from the connective tissue, NCTC L929, was employed for FACS analysis. The harvested cells were resuspended at 50,000 cells/well using FACS buffer into a V-bottom plate which was put on ice. […] After washing, Cy5-labeled goat anti-human IgG Fc at 5 μg/ml and 7AAD at 5 μg/ml was added. The mixtures were incubated for 15 min on ice, washed and resuspended in cold FACS buffer for FACS analysis.

[4] = target: T5, human urokinase-type plasminogen activator receptor (uPAR, CD87), cell-bound (human, UniProt Q03405 23-305); assay: cell-based or functional assay
[5] = target: T5, human urokinase-type plasminogen …; assay: FACS competition with FITC-tc-uPA, line material
From the text: (§3) Briefly, murine fibroblast L929 cells (ATCC) were transfected to express human uPAR.

[6] = target: T5, human urokinase-type plasminogen …; assay: cell-based or functional assay; remark: listed apart in the source
[7] = target: T5, human urokinase-type plasminogen …; assay: FACS, B300.19 cells expressing human uPAR, anti-human gamma Cy5
[8] = target: T4, soluble recombinant human uPAR/His6 …; assay: low resolution Biacore, mAb captured by goat anti-human, hu-uPAR 312 nM;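 also: surface plasmon resonance on a CM5 chip with goat anti-human antibody surface made by amine coupling, each mAb from supernatant captured per flow cell, kinetics fitted including mass transport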
Method: (§4) A high-density goat anti-human antibody surface over a CM5 Biacore™ chip was prepared using routine amine coupling. […] Each mAb was captured on a separate flow cell using a 30-second contact time at 10 μL/min followed by a 5-minute wash at a 100 μL/min flow rate for stabilization of the mAb baseline. […] All antigen samples were prepared in the running buffer.
A mass transport coefficient was used in fitting the data.

[9] = target: T3, murine uPAR (form not stated); assay: summary column Murine X-reactivity
[10] = target: T5, human urokinase-type plasminogen …; assay: FACS competition, FITC-tc-uPA on L929 cells expressing human uPAR, supernatant 1:2
From the text: as §3

[11] = target: T2, mouse uPAR on the surface of NCTC L929 …; assay: FACS, NCTC L929 mouse cells, mAb 6.25 µg/ml
Method: as §2

[12] = target: T5, human urokinase-type plasminogen …; assay: FACS, U937 cells, mAb 5 µg/ml on ice, alexa647 goat anti-human F(ab), not stripped
Method: A cell suspension containing 100,000 cells was pipetted into each well of a V-bottom plates in duplicate. Two V-bottom plates were prepared, one to be kept at 37° C. during internalization with antibody complex, and the other to be incubated at 4° C. Each of the eight uPAR mAbs was incubated with U937 cells at 5 μg/ml on ice for 15 min. Incubation on ice was necessary to prevent internalization of the primary mAbs. The cells were then washed with cold FACS buffer. Cells were subsequently incubated on ice in 100 μl of 5 μg/ml alexa647-labelled goat anti-humanF(ab) (Invitrogen catalogue number A21249) in cold FACS buffer for 15 min. This allowed the goat FAB bind to the bound uPAR mAbs without permitting any internalization. After a 15 minute incubation on ice, one plate was kept on ice, while the other plate was incubated at 37° C. for 1 hour.
Following the 1 hr incubation with the mAb-FAB complex, the cells were washed twice with cold 5% FACS buffer, and 200 μl of Tris(2-carboxyethyl)phosphine HCl (TCEP) was added to each well as a stripping agent. The plates were both incubated with TCEP on ice for 1 hour, followed by washing and resuspending with FACS buffer. 4 μl of 7-Amino-Actinomycin D (7AAD) was added to each well, followed by 10 min incubation on ice before FACS analysis was conducted.

[13] = target: T4, soluble recombinant human uPAR/His6 …; assay: limited antigen ELISA, uPAR coat 80 ng/mL, sample 1:25
Method: as §1

[14] = target: T4, soluble recombinant human uPAR/His6 …; assay: low resolution Biacore
Method: as §4

[15] = target: T6, cynomolgus monkey uPAR, cell-bound (cynomolgus monkey, UniProt Q9GK78 23-305); assay: FACS, GeoMean; cynomolgus uPAR expressed on 293T cells; antibody concentration not given
T6 construct: whole, on cells; also called cyno-uPAR

[16] = target: T5, human urokinase-type plasminogen …; assay: FACS, cells expressing human uPAR, line material

T6 sequence (Q9GK78 23-305): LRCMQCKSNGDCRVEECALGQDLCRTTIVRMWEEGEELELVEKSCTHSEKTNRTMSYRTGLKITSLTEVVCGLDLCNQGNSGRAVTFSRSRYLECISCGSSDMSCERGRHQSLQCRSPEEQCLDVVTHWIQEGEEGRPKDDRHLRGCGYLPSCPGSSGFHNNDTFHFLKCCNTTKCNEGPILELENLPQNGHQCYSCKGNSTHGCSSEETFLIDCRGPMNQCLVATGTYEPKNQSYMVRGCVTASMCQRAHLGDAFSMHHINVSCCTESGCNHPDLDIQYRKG
T5 sequence (Q03405 23-305): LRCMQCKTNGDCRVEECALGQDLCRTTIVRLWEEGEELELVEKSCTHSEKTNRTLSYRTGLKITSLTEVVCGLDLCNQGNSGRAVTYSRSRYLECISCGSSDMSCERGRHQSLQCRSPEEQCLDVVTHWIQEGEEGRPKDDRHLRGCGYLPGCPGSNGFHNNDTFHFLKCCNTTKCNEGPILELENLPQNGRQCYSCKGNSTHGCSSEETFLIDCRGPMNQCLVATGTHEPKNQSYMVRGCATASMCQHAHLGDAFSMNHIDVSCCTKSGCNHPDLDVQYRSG
T4 sequence (Q03405 other isoform, or with tags, fused parts or gaps limits assumed, form in doubt): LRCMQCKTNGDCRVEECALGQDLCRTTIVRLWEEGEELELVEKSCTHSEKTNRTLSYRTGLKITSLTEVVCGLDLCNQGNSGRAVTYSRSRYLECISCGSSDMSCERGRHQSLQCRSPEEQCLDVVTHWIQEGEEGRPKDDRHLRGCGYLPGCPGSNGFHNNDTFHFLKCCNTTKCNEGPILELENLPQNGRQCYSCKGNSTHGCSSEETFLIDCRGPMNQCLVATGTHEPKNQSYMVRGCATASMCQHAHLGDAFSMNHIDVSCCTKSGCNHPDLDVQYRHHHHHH

Binder	binding result [1]	LA at 20 ng/ml [2]	binding result [3]	Plasminogen activation inhibition (IC50, ug/ml) [4] [µg/mL]	Human uPAR/uPA binding inhibition (%, line material) [5] [%]	inhibition of plasminogen activation on U937 cells [6] [%]	gCy5 Geo Mean Pos Cells [7]	Kd [8] [nM]	koff [8] [s⁻¹]	kon [8] [M⁻¹ s⁻¹]	binding result [9]	uPA/uPAR binding Inhibition % [10] [%]	X Geo Mean [11]	geo mean cold - TCEP [12]	LA at 80 ng/ml [13]	Kd [14] [nM]	binding result [15]	Ab to cell bound Ag (line material, FACS) [16]
anti-uPAR monoclonal antibody 4.13.1 (antibody, V domains shown, also called 4.13.2) VH: EVQLLESGGGLVQPGGSLRLSCAASGFTFSSYAMSWVRQAPGKGLEWVLGISGSGGSTYYADSVKGRFTISRDNSKNTLYLQMNSLRAEDTAVYYCAKDGYGDYVGWYFDLWGRGTLVTVSS VL: not shown	no binding (tested: GeoMean ratio 1.95)	0.09	no binding (tested: 6.25 µg/ml)	0.077	78	> 90	28.2	12.6	0.0012	95000	no binding	78	11.2	37.4	0.24	12.6	–	–
anti-uPAR monoclonal antibody 4.50.1 (antibody, V domains shown, also called 4.50.2) VH: QVQLVESGGGVVQPGRSLRLSCAASGFTFSSYGMHWVRQAPGKGLEWVAVIWYDGSNKDYADSVKGRFTISRDNSKNTLYLQMNSLRAEDTAVYYCARDMIVVVITYAFDIWGQGTMVTVSS VL: not shown	binds	0.21	no binding (tested: 6.25 µg/ml)	0.104	67	> 90	402	2.2	0.00026	120000	no binding	67	8.92	42.1	0.64	2.2	binds	–
anti-uPAR monoclonal antibody 1.99.1 (antibody, V domains shown) VH: EVQLVESGGGLIQPGGSLRLSCAASGFTVRSNYMSWVRQAPGKGLEWISVIYTGGSTYYADSVKGRFSISRDNSKNTLYLQMNSLRAEDTAVYYCAREGAVAGFDYWGQGTLVTVSS VL: EIVMTQSPATLSVSPGERATLSCRASQSISSNLAWYQQKPGQAPRLLIYGASTRATGIPARFSGSGSGTEFTLTISSLQSEDFAVYYCQQYTNWPLTFGGGTKVEIK	–	–	no binding (tested: 6.25 µg/ml)	0.066	78	> 90	–	3.5	0.00042	120000	no binding	–	11.7	42.5	–	3.5	binds	514
anti-uPAR monoclonal antibody 4.19.1 (antibody, V domains shown) VH: EVQLVESGGGLIQPGGSLRLSCAASGFSVSSNYMNWVRQAPGKGLEWVSVIYTGGSTYYADSVKGRFTISRDNSKNTLYLQMNSLRAEDTAVYYCARDTYLYGMDVWGQGTTVTVSS VL: EIVMTQSPATLSVSPGESATLSCRTSQSVSSNLAWYQQKPGQTPRLLIYGASARATGVPARFSGSGSGTEFTLTISSLQSEDFAVYYCQQYYNWPLTFGGGTKVEIK	no binding (tested: GeoMean ratio 1.95)	0.16	no binding (tested: 6.25 µg/ml)	0.056	77	> 90	412	2.7	0.00032	120000	no binding	77	9.59	46	1.03	2.7	binds	–
anti-uPAR monoclonal antibody 4.12.1 (antibody, V domains shown) VH: EVQLVESGGGLVQPGGSLRLSCAASGFTFSSYWMSWVRQAPGTGLDWVANINQDGSERYYVDSVKGRFTISRDNAKNSPHLQMNSLRAEDTAVYYCAREGSGGRYGGWYFDLWGRGTLVTVSS VL: not shown	no binding (tested: GeoMean ratio 1.95)	0.06	no binding (tested: 6.25 µg/ml)	0.067	71	> 90	317	20.6	0.0013	63000	no binding	71	8.97	33.4	0.21	20.6	binds	–
